Experimental data published in the nanobody polyreactivity screen of Harvey et al. (2022).

Assay: yeast display, Sf9 membrane polyspecificity reagent, FACS + sequencing; frameworks hold sequencing errors
Procedure, shortened: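 Genes from sorted yeast were amplified by colony PCR, read by MiSeq 2 × 250 sequencing and filtered on CDR length. These cells carried a synthetic nanobody library in Saccharomyces cerevisiae BJ5465 and were sorted by FACS into low and high (top ~1%) gates on anti-HA and streptavidin fluorescence. Polyreactivity is labelled according to the gate of origin.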

Row | Sequence | polyreactivity (PSR sort gate)
1 | QVHLVESGGGLVQAGGSLRLSCAASGYIFTIYAMGWYRQAPGKERELVAAITSGGSTSYADSVKGRFTISRDNAKNTVYLQMNSLKPVDTAVYYCAAASVYAGLYYLWVYTGYDYWGQGTQVTVSS | high polyreactivity
2 | QVHLVESGGGLVQAGGSLRLSCAASGYIFYAIAMGWYRQAPGKERELVAAISTGGNTNYADSVKGRFTISRDNAKNTVYVQMNSLKPEDTAVYYCAVRSTGPYRWRTPVTRDYWGQGTQVTVSS | low polyreactivity
3 | QVHLVESGGGLVQAGGSLRLSCAASVRTYRGNAMGWYRQAPGKEREMVAAITYRTGSTYYADSVKGRFTISRDNAKNTVYLLMNSLKPEDTAVYYCAAVSGRSYDKYYYWGQGTQVTVSS | high polyreactivity
4 | QVHLVESGGGLVQAGGSLRLSCAATGRTLTCNARGWYRQAPGKERELVPAISRSGGGSTYYADSVKGRFTISRDTAKNTVYIQMISLKPEDTAVYYCAARYRVHYYWYPMGYWGQGTQVTVSS | high polyreactivity
5 | QVHLVESGGGLVQAGGSLRLSCAAYGIIFNSNAMGWYRQAPGKERELVAAISVSGGSTYYADSVKGRFTISRDNAKNTVYLQMNSLKPEDTAVYFCAARTGRGDRTRRYYYWGQGTKVTVSS | high polyreactivity
6 | QVHLVESGGGLVQAGGSLRLSCAAYGRNFQYNAMGWDRQAPGKEREFVASISGSGGRTYYADSVKGRFTISRDNAKNTVYLQMNSLKPEDTAVYYCNASLLFPLLYGPESGEFDYWGQGSQVTVSS | low polyreactivity
7 | QVHLVESGGGLVQAGGSLRLSCAAYGSTFTWYARGWYRQAPGKERELVADISYGGGSTYYADSVKGRFTISRDNAKNTVYLQMNSLKPEDTAVYYCAAESIPYYRYDYWGQGSQVTVSS | low polyreactivity
8 | QVHLVESGGGLVQAGGSLRLSCADSGSTFKNYAMGWYRPAPGKERELVATITKRGGSTYYADSVKGRFTISRDNAKNTVYLQMKSMKPEDTAVYYCAAAPNGPRYRDRFDYWGQGNQVTVSS | high polyreactivity
9 | QVHLVESGGGLVQAGGSLRLSCAPSGSIFRNYAMGWYRQAPGKESELVATISGRGGRTYYEDSVKGRFTISRDNAKNTVYLQMNSLKPEDTAVYYCAARGTLGKYSTASVYSGQGTQVTVSS | high polyreactivity
10 | QVHLVESGGGLVQAGGSLRLSCASSGTTFRYYAMGCYRQAPGKERELVAAITYRGGRTYYADSVKGRFTISRDNPKNTVYLQMNSLKPEDTAVYYCAGKSGGDSMDSWGQGTQVTVSS | low polyreactivity
11 | QVHLVESGGGLVQAGGSLRLSCDASGLTFANNAMGWYRQAPGKEREFVAAIRGSGGSTYYADSVKGRFTISRDNAKNTVYLQMNSLKPEDTAVYYCNAGYLRKYHGWFQVKFDYWGQGTQVTVSS | low polyreactivity
12 | QVHLVESGGGLVQAGGSLRLSCDASGSTFGYYAMGWYRQAPGKERELVAAISWNGVSTYYADSVKGRFTISRDNAKNTVYLQMNCLKPEDTAVYYCATVGLRRLFVNPGTLMDYWGEGTQVTVSS | low polyreactivity
13 | QVHLVESGGGLVQAGGSLRLSCPASGRTLDSNAMGWYRQAPGKERELVAAISSAGSTNYADSVKGRFTISRDNAKNTVYLQMNSLKPEDTAVYYCAADLIGSHDYWGQGTQVTVSS | low polyreactivity
14 | QVHLVESGGGLVQAGGSLRLSCYASGRIFRYYAMGWYRQPPGKERELVAVINCSGGSTYYAVSVKGRFTISRDNAKNSVYLQMNSLKPEDTAVYYCYVYSVYPQFNYWGQGTQVTVSS | high polyreactivity
15 | QVHLVESGGGLVQAGGSLRLSGAASGFTFYRYAMGWSRQAPGKERELVAAITSGAITYYADSVKGRFTISRDNAKNTVYLQMNSLKPEETAVYYCNAVYRVAAIVRYDYWGQGTQVTVSS | high polyreactivity
16 | QVHLVESGGGLVQAGGSLRLSSAASGRIFDRYAMGWYRQAPGKERELVAAITSRADRTYYADSLKGRFTISRDNAKNTVYLQMNSLKPEDTAVYYCNTDKKYRHRYGGILDYWGQGTEVTVSS | high polyreactivity
17 | QVHLVESGGGLVQAGGSLRLSSAASGRIFYNYTMRWYRQAPGKERELVAAITRSGSSTYADSVKGRFTISRDNGKNTVYLQMNSLKQEDTAVYYCAGEYIRRYDYWGQGTQETVSS | low polyreactivity
18 | QVHLVESGGGLVQAGGSLRLSSAPSGSTFDAYDMGWYRQAPGKESELVAAITSGGSTNYADSVKGRFTISRDNAKNTVYLQMNSLKPEDTAVYYCAASPYRGFVSRYGYWGQGTQVTLSS | low polyreactivity
19 | QVHLVESGGGLVQAGGSLRLTCAASGFTFHQYAMGWYRQAPGKERELVAAISQSGDSTYYADSVKGRFTISRDNSKNTVYLQMNSLKQEYTAVYYFNADNDGVVWSDPFDFDYWGQGTQVTVSS | low polyreactivity
20 | QVHLVESGGGLVQAGGSLRLTCAASGFTYPGNAMGWYRQAPGKERELVATINWSGTSTYYADSVKGRFTISRDYAKNTVYLQMNSLKPEDTAVYYCAVDTGGPGYRFDYWGQGTQVTVSS | high polyreactivity
21 | QVHLVESGGGLVQAGGSLRLTCAASGLIFYDNMGWYRQAPGKERELVAAISSSGGSTSYADSVKGRFTISRDNAKNTVYLQMTSLKPVDTAVYYCAADSYPAYLGFVGFDYWGKGTQVTVSS | low polyreactivity
22 | QVHLVESGGGLVQAGGSLRLTCAASGRIFTSYVMGRSRQAPGQVRDLVAAITRSGGSTYYADSVKGRFTISRDNAKNTVYLQMNSLKPEDTAVYYCNALTRRQNGGEGGGYWGQGTHVTVSS | high polyreactivity

Row | Sequence | polyreactivity (PSR sort gate)
23 | QVHLVESGGGLVQAGGSLRLTCAASGSIFLWNAMGWYRQAPGTEREVVAAITWRGGSTYYADSVKGRFTISRDNEKYTVYLQMNSLKPEDTAVYYCAADSYDWMDYWGQGTQVTVSS | low polyreactivity
24 | QVHLVESGGGLVQAGGSLRLTCAASGSILAYNAMGWYRQAPGKERELVAAIRLSGGSTYYADSVKGRFTISRDNAKNTVYLQMNSLKPEDTAVYYCARRYYRYDTRKYNYWGQGTKVTVSS | high polyreactivity
25 | QVHLVESGGGLVQAGGTLRLSCAATGRTIYDNAMGWYRQAPGKESELVAVISRSGSTYYADSVKGRFTISRDNAKNSVYLQMNSLKPEDNAVYYCARRGVWGVTYSRLYHWGQGTQVTVSS | high polyreactivity
26 | QVHLVESGGGLVQAGRSLRLSCAASGRIFSRYAMGGSRQAPGKERELVAVISRSGADTYYADSVKGRFTISRDNAKTTVYLQMNSLKPEDSAVYSCNAYSARRPHPMGYDYWGQCTQVTVSS | high polyreactivity
27 | QVHLVESGGGLVQAGVSLRLSCAASGSTFDYYAMGWYIQAPGTERELVAGITGGGSTYYADSVKGRFTISRDNAKNTVYLQMNSLKPEDTAVYYCNAGPAQRYDYWGQGTQVTVSS | low polyreactivity
28 | QVHLVESGGGLVQAGVSLRLSCAASGSTFRRNAMGWYRQEPGKERELVAAISTSGGTTYYADSVKGRFTISRDNAKNTVYLEMNSLKPEDTAVYYCNADVYVWNYKYYSSGQGTQVTVSS | high polyreactivity
29 | QVHLVESGGRLVKAGGSLRLSCPASGYITTKYAMGWYRQAPGKEMELVAAIRYSGTSTYYADSVKGRFTISRDNATNTVYLQMNSLKPEDTAVYYCNTRRYVRTTKYDYWGQGTQVTVSS | high polyreactivity
30 | QVHLVESGGRLVQAGGSLRLSSAASGSIFVKNAMGWYRQAPGKERELVATISSGGSTYYADSVKGRFTISRDNAKNTVYLQMNSLKPEDTAVYYSNTASYVSWYVHYYYWGVGTQVTVSS | low polyreactivity
31 | QVHLVESGGVLLQAGGSLRLSCAASGFIFKWNAMGWYRQAPGKERELVAAISWHGGSTNYADSVKGRFTISRDNAKNTVYLQMNSLKPEDTAVYYCAKQQSPYYPSTLDYWGQGTQVTVSS | high polyreactivity
32 | QVHLVESGGWLVQAGGSLRLSCAASGRTFHVYAMGWYRQAPGKERELVAAITWSGDSTYYADSVKGRFTISRDNAKNTVYLQMNSLKPEDTAVYYCAASQFWKYDYWGQGTQVTVSS | low polyreactivity
33 | QVHLVESGRGLFQAGGSLRLSCAASGSIFGYNAMGWYRQAPGKERELVAAITWRGGSTYYADSVKGRFTISRDNAKNTVYLQMNSLKPEDTAVYDCAAYVYQEYDYWGQGTQVTVSS | high polyreactivity
34 | QVHLVESGRGLFQAGGSLRLSCAASGYTFGPYDMGGYRQAPGKERELVAGITLSGGITYYADSVKGRFTISRDNAKNTVYLQMNSLKPQDTAVSYCAAAFYVSYSVIYEYWGHGTQVTVSS | high polyreactivity
35 | QVHLVESGVGLVQAGGSLRLRCAASGRTLYYYAMGWYRQAPGKQSELVAAINSGGSTKYADSVKGRFTISRDNAKNTVYLQMHSLKPEDTAVYFCAARGYIRGGYYWGQGTQVTVSS | high polyreactivity
36 | QVHLVESRGGLLQAGGSLRLSCAASVYIFYYYAMGWYRQAPGKEREFVAAITSGDSTYADSVKGRFTISRDNAKNTVYLQMYSLKPEDTAVYYCAAESYFFSPRTREKFDSWGQGTQVTVSS | low polyreactivity
37 | QVHLVESRGGLVQAGGSLSLSCAASGITFYIYAMGWYRQAHGKERELVAAFTTSGDSTYYADSVKGRFTISRDNAKNTVYLQMNSLKPEDTAVYDCAAEYWYTYSWGQGTQVTVLS | low polyreactivity
38 | QVHLVESVGGLVQAGGSLRLSCAASGSIFDVYTMGCYRQAPGKERELVAAINTGGGSKYYADSVKGRFTISRDNAKNTVYLQMNSLKPEDTAVYYCAASVYHYGPLYYWGQGTQVTVSS | low polyreactivity
39 | QVHLVESVGGLVQAGGSLRLSSAASGIIFRSNAMGWYRQAPGKERELVAAISSRGSSTNYADSVKGRFTISRDNAKNTVYLQMNSLNPEDTAVYYCNARGSRVDQTESEYWGQGTQVTVSS | high polyreactivity
40 | QVHLVESWGGLVQAGGSLRLSCAASGRTFWKYAMGWYRQAPWKDRVLVAAITASGARTYYADSVKGRFSISRDNGKNTVYLQMNSLKPEDTSVYYCNAGSVSDRQMDYWGQGTQVTVSS | low polyreactivity
41 | QVHLVESWGGLVQAGGSLRLSCSASGITFDEYTIGWYRQAPGKERELVAAIDSDGSTTYADSVKVRFTISRDNAKNTVYLQMNILKPEDTEVYYCNAEHGDFCWHYLLYDYDYWGQGTQVTVSS | low polyreactivity
42 | QVHLVETGGGLVQAGGSLRISCAASGFTFSRYAMVWYRQAPGKERELVAAITSRGGSTYYADSVKGRFTISRDNAKNTVYLQMNSLKPEDTAFYYCAASGRNRKDGLYEYYYWGQGTQVTVSS | high polyreactivity
43 | QVHLVETVRGLLQAGGSLRISCAASGRSFKRYAMGWYRQAPGKERELVAAITRSGGSTYYADSVKGRFTISRDNAKNTVYLQMNSLKPEDTAVYYCATRSYNNELEYWGQGSQVTVSS | high polyreactivity
